In patent US20200270310A1, “MAFG AS A POTENTIAL THERAPEUTIC TARGET TO RESTORE CHEMOSENSITIVITY IN PLATINUM-RESISTANT CANCER CELLS” (FUNDACÓIN PARA LA INVESTIGACIÓN BIOMÉDICA DEL HOSPITAL …, priority 2017, published 2020):

Experiments:
[1] = tested on: A2780 ovarian cancer cells; experiment: ROS production after CDDP exposure, ovarian cells; format: cell-based, human
Method: FIG. 3. Viability assays and Reactive Oxygenated Species detection after CDDP treatment in A2780 cell lines. (A) Viability to CDDP in A2780S (left) and A2780R (right) at 24, 48 and 72 hours and 6 concentrations of CDDP measured by MTT assay. (B) Increment of ROS production in A2780S (left) and A2780R (right) after 24, 48 and 72 hours of CDDP treatment. $: 72h (vs Basal).
H23/A2780 cells were cultured in 96-well black plates at density of 10,000 cells/well. Cells were treated with 6 different doses of CDDP for 24, 48 and 72 h in RPMI containing 10% FBS. Then treatments were removed and cells were loaded with the fluorescent probe 2′,7′-dichlorodihydrofluorescein diacetate (H2DCFDA) (10 μM) for 45 minutes in RPMI medium (FBS free). Cells were washed twice with RPMI (10% FBS), and fluorescence was recorded in a Fluostar Optima, each hour, over 4 hours period. […] ROS production was calculated dividing the mean H2DCFDA fluorescence by the mean viability. […] All experiments included cells treated with RPMI alone (Basal), and one well without cells as fluorescence basal.
H23/A2780 cells were cultured in 96-well black plates at density of 10,000 cells/well. […] Cells were washed twice with RPMI (10% FBS), and fluorescence was recorded in a Fluostar Optima at 520 nm after excitation at 485 nm. […] ROS production was calculated dividing the mean H2DCFDA fluorescence by the mean viability. […]

[2] = tested on: H23R cells; experiment: Semiquantitative RT-PCR of MAFG and HMOX1 in aptamer-transfected cells after platinum treatment; format: cell-based, human; conditions: aptamer-transfected H23R after platinum treatment vs H23R
Method: For semiquantitative RT-PCR, 500 ng of total RNA isolated from cell lines was used for RT reaction using PrimeScript™ RT Master (Clontech-Takara, USA) and subsequent semiquantitative PCR using Promega PCR Mix (Promega, USA) as previously described. Relative quantification was performed by measuring the intensity of band amplified using ImageJ software. Primers for HMOX1 (F: 5′-[…]-3′; R: 5′-[…]-3′), MAFG (F: 5′-[…]-3′; R: 5′-[…]-3′) and GAPDH (F: 5′-GAGAGACCCTCACTGCTG-3′; R: 5′-[…]-3′) were designed to include the probe from the array in order to assure the correct transcript identification.

`[NH2][Pt]([NH2])([Cl])[Cl]` [CDDP, Cisplatin] was tested, and the “differences in ROS production between sensitive and resistant cells” value [1] was “confirmed”.

B1: GCGGATGAAGACTGGTGTCGATGCATGTGTAGTGCATTTCGAGCCGTTCTATTGGTGTGCCCTAAATACGAGCAAC (nucleic acid)
chain: GCGGATGAAGACTGGTGTCGATGCATGTGTAGTGCATTTCGAGCCGTTCTATTGGTGTGCCCTAAATACGAGCAAC
modifications: chemistry not given here
notes: DNA aptamer selected against the MAFG protein by SELEX
With B1 the HMOX1 expression [2] was “decrease in their expression” and the MAFG expression [2] was “decrease in their expression”.
